Consider one substance from patent US20220064321A1.

The target of assay [1] is CD16a on effector cells NK92MI-CD16a (UniProt P08637). Briefly: cell-based or functional assay.
Assay [2] has as its target FcγRIIIa(V158) (Sino Biological Inc, 10389-H08C1) (UniProt P08637). Kind of assay: binding ELISA; His-tagged FcγRIIIa captured by anti-His antibody, IgG pre-complexed with goat F(ab')2 anti-human-κ, HRP anti-human F(ab')2 detection.

CD16a on effector cells NK92MI-CD16a, sequence (P08637 17-254 limits assumed): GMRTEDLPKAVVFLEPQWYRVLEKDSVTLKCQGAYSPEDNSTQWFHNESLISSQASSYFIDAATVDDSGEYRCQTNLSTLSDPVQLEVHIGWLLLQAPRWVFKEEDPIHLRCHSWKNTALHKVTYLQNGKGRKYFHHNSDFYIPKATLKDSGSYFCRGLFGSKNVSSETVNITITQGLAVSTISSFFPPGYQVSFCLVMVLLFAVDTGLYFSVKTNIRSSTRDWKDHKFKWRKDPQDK
FcγRIIIa(V158) (Sino Biological Inc, 10389-H08C1), sequence (P08637 17-208 F176V limits assumed): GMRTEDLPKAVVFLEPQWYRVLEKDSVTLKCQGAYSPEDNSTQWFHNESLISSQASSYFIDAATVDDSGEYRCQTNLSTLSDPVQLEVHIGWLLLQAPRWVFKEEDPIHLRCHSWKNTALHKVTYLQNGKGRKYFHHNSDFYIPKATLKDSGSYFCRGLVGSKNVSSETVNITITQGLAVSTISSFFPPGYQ

In assay [1], RITUXAN® (rituximab) (antibody) yielded an ADCC Target cell: Daudi, EC50 of 4.53 ng/mL and an ADCC Target cell: Raji, EC50 of 0.345 ng/mL. Moreover, the half-maximal effective concentration (EC50) in assay [2] stood at 194 ng/mL.
